T1: Angiotensin converting enzyme (ACE)
T1 sequence (F1RRW5 whole entry, species assumed, looked up): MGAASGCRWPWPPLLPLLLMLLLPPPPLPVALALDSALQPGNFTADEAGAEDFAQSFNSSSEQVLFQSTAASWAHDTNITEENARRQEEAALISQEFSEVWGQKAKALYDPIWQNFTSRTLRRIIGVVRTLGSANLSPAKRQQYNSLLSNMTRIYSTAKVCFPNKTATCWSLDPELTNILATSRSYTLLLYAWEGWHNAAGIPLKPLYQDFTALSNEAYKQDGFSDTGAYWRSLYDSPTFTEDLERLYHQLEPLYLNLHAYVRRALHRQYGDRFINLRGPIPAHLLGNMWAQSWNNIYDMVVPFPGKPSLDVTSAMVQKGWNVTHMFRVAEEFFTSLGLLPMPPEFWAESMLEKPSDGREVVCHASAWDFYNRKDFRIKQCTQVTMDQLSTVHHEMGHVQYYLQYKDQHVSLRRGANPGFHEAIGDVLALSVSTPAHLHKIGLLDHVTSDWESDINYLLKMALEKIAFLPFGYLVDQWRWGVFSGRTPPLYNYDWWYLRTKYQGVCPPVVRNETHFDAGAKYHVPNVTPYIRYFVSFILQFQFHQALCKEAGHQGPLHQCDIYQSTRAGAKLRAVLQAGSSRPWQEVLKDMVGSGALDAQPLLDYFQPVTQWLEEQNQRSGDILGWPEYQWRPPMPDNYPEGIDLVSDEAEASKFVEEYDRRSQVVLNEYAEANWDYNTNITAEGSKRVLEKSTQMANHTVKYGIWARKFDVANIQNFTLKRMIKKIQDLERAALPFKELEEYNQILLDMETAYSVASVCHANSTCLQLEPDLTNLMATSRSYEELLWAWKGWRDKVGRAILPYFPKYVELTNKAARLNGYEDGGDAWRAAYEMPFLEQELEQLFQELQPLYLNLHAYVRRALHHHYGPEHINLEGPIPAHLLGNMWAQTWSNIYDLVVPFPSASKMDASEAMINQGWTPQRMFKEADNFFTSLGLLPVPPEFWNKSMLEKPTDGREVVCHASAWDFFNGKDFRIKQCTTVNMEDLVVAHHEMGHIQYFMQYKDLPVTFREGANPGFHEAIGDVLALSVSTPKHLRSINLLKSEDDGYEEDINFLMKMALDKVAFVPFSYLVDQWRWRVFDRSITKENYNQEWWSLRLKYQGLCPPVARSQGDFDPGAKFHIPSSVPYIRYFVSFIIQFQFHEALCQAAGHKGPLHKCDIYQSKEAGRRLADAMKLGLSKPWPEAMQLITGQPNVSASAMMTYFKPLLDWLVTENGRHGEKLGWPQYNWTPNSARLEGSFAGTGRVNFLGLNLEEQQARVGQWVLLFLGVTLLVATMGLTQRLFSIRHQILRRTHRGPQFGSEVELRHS


Target: T1, Angiotensin converting enzyme (ACE)
Test: cell-based or functional assay

Row | ACE inhibitory activity (IC50) [µM] | Binder
1 | 172 | ILPP [Ile-Leu-Pro-Pro (ILPP)]
2 | 97 | VLPP [Val-Leu-Pro-Pro (VLPP)]
